Experimental data taken from publication PMC3592467 (Nucleic Acids Research, 2012).

T1: MBD3-GFP (UniProt O95983 1-291)
T1 sequence: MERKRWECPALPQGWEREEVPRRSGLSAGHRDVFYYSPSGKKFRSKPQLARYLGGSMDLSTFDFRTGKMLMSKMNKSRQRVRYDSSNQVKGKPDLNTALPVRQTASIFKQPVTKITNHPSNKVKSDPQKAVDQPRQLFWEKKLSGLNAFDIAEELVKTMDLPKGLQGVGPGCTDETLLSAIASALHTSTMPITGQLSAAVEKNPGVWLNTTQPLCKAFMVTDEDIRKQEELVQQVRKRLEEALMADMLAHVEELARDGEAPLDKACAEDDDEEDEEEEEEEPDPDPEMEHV

B1: C17orf96 (natural protein)
chain: METLCPAPRLAVPASPRGSPCSPTPRKPCRGTQEFSPLCLRALAFCALAKPRASSLGPGPGELAARSPVLRGPQAPLRPGGWAPDGLKHLWAPTGRPGVPNTAAGEDADVAACPRRGEEEEGGGGFPHFGVRSCAPPGRCPAPPHPRESTTSFASAPPRPAPGLEPQRGPAASPPQEPSSRPPSPPAGLSTEPAGPGTAPRPFLPGQPAEVDGNPPPAAPEAPAASPSTASPAPAAPGDLRQEHFDRLIRRSKLWCYAKGFALDTPSLRRGPERPPAKGPARGAAKKRRLPAPPPRTAQPRRPAPTLPTTSTFSLLNCFPCPPALVVGEDGDLKPASSLRLQGDSKPPPAHPLWRWQMGGPAVPEPPGLKFWGINMDES
B2: C10orf12 (natural protein)
chain: MQRMIQQFAAEYTSKNSSTQDPSQPNSTKNQSLPKASPVTTSPTAATTQNPVLSKLLMADQDSPLDLTVRKSQSEPSEQDGVLDLSTKKSPCAGSTSLSHSPGCSSTQGNGENSTEAKAVDSNNQSKSPLEKFMVKLCTHHQKQFIRVLNDLYTESQPGTEDLQPSDSGAMDVSTCNAGCAQLSTKHKEKDALCLDMKSSASVDLFVDSSDSHSPLHLTEQTPKKPPPEINPVDGRENALTVVQKDSSELPTTKSNSINSSSVDSFTPGYLTASNCSSVNFHHIPKILEGQTTGQEQDTNVNICEDGKDHMQSSALVESLITVKMAAENSEEGNTCIIPQRNLFKALSEEAWNSGFMGNSSRTADKENTLQCPKTPLRQDLEANEQDARPKQENHLHSLGRNKVGYHLHPSDKGQFDHSKDGWLGPGPMPAVHKAANGHSRTKMISTSIKTARKSKRASGLRINDYDNQCDVVYISQPITECHFENQKSILSSRKTARKSTRGYFFNGDCCELPTVRTLARNLHSQEKASCSALASEAVFTPKQTLTIPAPRHTVDVQLPREDNPEEPSKEITSHEEGGGDVSPRKEPQEPEVCPTKIKPNLSSSPRSEETTASSLVWPLPAHLPEEDLPEGGSTVSAPTASGMSSPEHNQPPVALLDTEEMSVPQDCHLLPSTESFSGGVSEDVISRPHSPPEIVSREESPQCSENQSSPMGLEPPMSLGKAEDNQSISAEVESGDTQELNVDPLLKESSTFTDENPSETEESEAAGGIGKLEGEDGDVKCLSEKDTYDTSIDSLEENLDKKKKGKKFPEASDRCLRSQLSDSSSADRCLRNQSSDSSSACLEIKVPKNPSAKRSKKEGHPGGTTPKGLLPDSFHTETLEDTEKPSVNERPSEKDAEQEGEGGGIITRQTLKNMLDKEVKELRGEIFPSRDPITTAGQPLPGERLEIYVQSKMDEKNAHIPSESIACKRDPEQAKEEPGHIPTQHVEEAVNEVDNENTQQKDDESDAPCSSLGLSSSGSGDAARAPKSVPRPKRLTSSTYNLRHAHSLGSLDASKVTSEKEAAQVNPIMPKENGASESGDPLDEDDVDTVVDEQPKFMEWCAEEENQELIANFNAQYMKVQKGWIQLEKEGQPTPRARNKSDKLKEIWKSKKRSRKCRSSLESQKCSPVQMLFMTNFKLSNVCKWFLETTETRSLVIVKKLNTRLPGDVPPVKHPLQKYAPSSLYPSSLQAERLKKHLKKFPGATPAKNNWKMQKLWAKFRENPDQVEPEDGSDVSPGPNSEDSIEEVKEDRNSHPPANLPTPASTRILRKYSNIRGKLRAQQRLIKNEKMECPDALAVESKPSRKSVCINPLMSPKLALQVDADGFPVKPKSTEGMKGRKGKQVSEILPKAEVQSKRKRTEGSSPPDSKNKGPTVKASKEKHADGATKTPAAKRPAARDRSSQPPKKTSLKENKVKIPKKSAGKSCPPSRKEKENTNKRPSQSIASETLTKPAKQKGAGESSSRPQKATNRKQSSGKTRARPSTKTPESSAAQRKRKLKAKLDCSHSKRRRLDAK
B3: ZMYND8 (natural protein)
chain: MDISTRSKDPGSAERTAQKRKFPSPPHSSNGHSPQDTSTSPIKKKKKPGLLNSNNKEQSELRHGPFYYMKQPLTTDPVDVVPQDGRNDFYCWVCHREGQVLCCELCPRVYHAKCLRLTSEPEGDWFCPECEKITVAECIETQSKAMTMLTIEQLSYLLKFAIQKMKQPGTDAFQKPVPLEQHPDYAEYIFHPMDLCTLEKNAKKKMYGCTEAFLADAKWILHNCIIYNGGNHKLTQIAKVVIKICEHEMNEIEVCPECYLAACQKRDNWFCEPCSNPHPLVWAKLKGFPFWPAKALRDKDGQVDARFFGQHDRAWVPINNCYLMSKEIPFSVKKTKSIFNSAMQEMEVYVENIRRKFGVFNYSPFRTPYTPNSQYQMLLDPTNPSAGTAKIDKQEKVKLNFDMTASPKILMSKPVLSGGTGRRISLSDMPRSPMSTNSSVHTGSDVEQDAEKKATSSHFSASEESMDFLDKSTASPASTKTGQAGSLSGSPKPFSPQLSAPITTKTDKTSTTGSILNLNLDRSKAEMDLKELSESVQQQSTPVPLISPKRQIRSRFQLNLDKTIESCKAQLGINEISEDVYTAVEHSDSEDSEKSDSSDSEYISDDEQKSKNEPEDTEDKEGCQMDKEPSAVKKKPKPTNPVEIKEELKSTSPASEKADPGAVKDKASPEPEKDFSEKAKPSPHPIKDKLKGKDETDSPTVHLGLDSDSESELVIDLGEDHSGREGRKNKKEPKEPSPKQDVVGKTPPSTTVGSHSPPETPVLTRSSAQTSAAGATATTSTSSTVTVTAPAPAATGSPVKKQRPLLPKETAPAVQRVVWNSSSKFQTSSQKWHMQKMQRQQQQQQQQNQQQQPQSSQGTRYQTRQAVKAVQQKEITQSPSTSTITLVTSTQSSPLVTSSGSMSTLVSSVNADLPIATASADVAADIAKYTSKMMDAIKGTMTEIYNDLSKNTTGSTIAEIRRLRIEIEKLQWLHQQELSEMKHNLELTMAEMRQSLEQERDRLIAEVKKQLELEKQQAVDETKKKQWCANCKKEAIFYCCWNTSYCDYPCQQAHWPEHMKSCTQSATAPQQEADAEVNTETLNKSSQGSSSSTQSAPSETASASKEKETSAEKSKESGSTLDLSGSRETPSSILLGSNQGSDHSRSNKSSWSSSDEKRGSTRSDHNTSTSTKSLLPKESRLDTFWD
B4: Jarid2 (natural protein)
chain: MSKERPKRNIIQKKYDDSDGIPWSEERVVRKVLYLSLKEFKNSQKRQHAEGIAGSLKTVNGLLGNDQSKGLGPASEQSENEKDDASQVSSTSNDVSSSDFEEGPSRKRPRLQAQRKFAQSQPNSPSTTPVKIVEPLLPPPATQISDLSKRKPKTEDFLTFLCLRGSPALPNSMVYFGSSQDEEEVEEEDDETEDVKTATNNASSSCQSTPRKGKTHKHVHNGHVFNGSSRSTREKEPVQKHKSKEATPAKEKHSDHRADSRREQASANHPAAAPSTGSSAKGLAATHHHPPLHRSAQDLRKQVSKVNGVTRMSSLGAGVTSAKKMREVRPSPSKTVKYTATVTKGAVTYTKAKRELVKDTKPNHHKPSSAVNHTISGKTESSNAKTRKQVLSLGGASKSTGPAVNGLKVSGRLNPKSCTKEVGGRQLREGLQLREGLRNSKRRLEEAHQAEKPQSPPKKMKGAAGPAEGPGKKAPAERGLLNGHVKKEVPERSLERNRPKRATAGKSTPGRQAHGKADSASCENRSTSQPESVHKPQDSGKAEKGGGKAGWAAMDEIPVLRPSAKEFHDPLIYIESVRAQVEKFGMCRVIPPPDWRPECKLNDEMRFVTQIQHIHKLGRRWGPNVQRLACIKKHLKSQGITMDELPLIGGCELDLACFFRLINEMGGMQQVTDLKKWNKLADMLRIPRTAQDRLAKLQEAYCQYLLSYDSLSPEEHRRLEKEVLMEKEILEKRKGPLEGHTENDHHKFHPLPRFEPKNGLIHGVAPRNGFRSKLKEVGQAQLKTGRRRLFAQEKEVVKEEEEDKGVLNDFHKCIYKGRSVSLTTFYRTARNIMSMCFSKEPAPAEIEQEYWRLVEEKDCHVAVHCGKVDTNTHGSGFPVGKSEPFSRHGWNLTVLPNNTGSILRHLGAVPGVTIPWLNIGMVFSTSCWSRDQNHLPYIDYLHTGADCIWYCIPAEEENKLEDVVHTLLQANGTPGLQMLESNVMISPEVLCKEGIKVHRTVQQSGQFVVCFPGSFVSKVCCGYSVSETVHFATTQWTSMGFETAKEMKRRHIAKPFSMEKLLYQIAQAEAKKENGPTLSTISALLDELRDTELRQRRQLFEAGLHSSARYGSHDGSSTVADGKKKPRKWLQLETSERRCQICQHLCYLSMVVQENENVVFCLECALRHVEKQKSCRGLKLMYRYDEEQIISLVNQICGKVSGKNGSIENCLSKPTPKRGPRKRATVDVPPSRLSASSSSKSASSSS
B5: AEBP2 (natural protein)
chain: MAAAITDMADLEELSRLSPLPPGSPGSAARGRAEPPEEEEEEEEEEEEAEAEAVAALLLNGGSGGGGGGGGGGVGGGEAETMSEPSPESASQAGEDEDEEEDDEEEEDESSSSGGGEEESSAESLVGSSGGSSSDETRSLSPGAASSSSGDGDGKEGLEEPKGPRGSQGGGGGGSSSSSVVSSGGDEGYGTGGGGSSATSGGRRGSLEMSSDGEPLSRMDSEDSISSTIMDVDSTISSGRSTPAMMNGQGSTTSSSKNIAYNCCWDQCQACFNSSPDLADHIRSIHVDGQRGGVFVCLWKGCKVYNTPSTSQSWLQRHMLTHSGDKPFKCVVGGCNASFASQGGLARHVPTHFSQQNSSKVSSQPKAKEESPSKAGMNKRRKLKNKRRRSLPRPHDFFDAQTLDAIRHRAICFNLSAHIESLGKGHSVVFHSTVIAKRKEDSGKIKLLLHWMPEDILPDVWVNESERHQLKTKVVHLSKLPKDTALLLDPNIYRTMPQKRLKRTLIRKVFNLYLSKQ

Key:
EED-GFP = EED-GFP (UniProt O75530 1-441); experiment: affinity purification with mass spectrometry
MBD3-GFP = target: T1, MBD3-GFP; experiment: affinity purification with mass spectrometry

Sequence of EED-GFP (O75530 whole entry): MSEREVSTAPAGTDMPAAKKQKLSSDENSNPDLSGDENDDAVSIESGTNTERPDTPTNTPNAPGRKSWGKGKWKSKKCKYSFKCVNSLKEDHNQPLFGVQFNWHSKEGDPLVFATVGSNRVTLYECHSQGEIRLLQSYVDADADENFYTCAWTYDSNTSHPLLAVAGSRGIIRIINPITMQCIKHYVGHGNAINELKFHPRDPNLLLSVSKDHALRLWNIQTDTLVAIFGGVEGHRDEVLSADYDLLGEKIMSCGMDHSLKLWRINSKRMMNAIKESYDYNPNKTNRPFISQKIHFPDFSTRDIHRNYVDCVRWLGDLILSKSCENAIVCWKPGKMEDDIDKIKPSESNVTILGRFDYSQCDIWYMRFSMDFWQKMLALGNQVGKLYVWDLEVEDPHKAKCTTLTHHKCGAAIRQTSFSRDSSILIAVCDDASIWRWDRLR

| stoichiometry N (EED-GFP) | stoichiometry N (MBD3-GFP) | Binder |
| --- | --- | --- |
| 0.47 relative to EED |  | B1 |
| ~0.06 relative to the core subunits |  | B2 |
|  | ~0.01 relative to MBD3 | B3 |
| 0.12 relative to EED |  | B4 |
| 0.2 relative to EED |  | B5 |
